Ends that are not written are not given here.
Assays:
[1] = target: GXM-binding murine monoclonal antibody 18B7 (mouse); assay: SPR; BIAcore 3000; antibody immobilised on a CM5 chip through primary amino groups; peptide P1 1.56 µM to 200 µM at 100 µl/min in 0.2 mM K2HPO4/KH2PO4 pH 6.5, 150 mM KCl, 0.01% Tween 20; 25°C; global fit to a two-state model, equilibrium constants calculated from the rate constants
[2] = target: Mouse-human chimeric antibody 18B7 (IgG1) (mouse | human); assay: as above
[3] = target: deglycosylated form of mAb 18B7 (mouse); assay: as above
thyroglobulin = target: T1, thyroglobulin (Bos taurus (assumed), UniProt P01267); assay: ELISA; polystyrene plates coated overnight at 4°C with antigen at 5 µg/ml in bicarbonate buffer pH 9.6; blocked with 1% BSA in TBS; Abs added at 40 µg/ml in 1% BSA/TBS and serially diluted, overnight at 4°C; alkaline-phosphatase conjugated anti-mouse or anti-human IgG; conditions: both partners purified
T1 construct: thyroglobulin (Sigma); source: bought: Sigma
T1 sequence (P01267 20-2769): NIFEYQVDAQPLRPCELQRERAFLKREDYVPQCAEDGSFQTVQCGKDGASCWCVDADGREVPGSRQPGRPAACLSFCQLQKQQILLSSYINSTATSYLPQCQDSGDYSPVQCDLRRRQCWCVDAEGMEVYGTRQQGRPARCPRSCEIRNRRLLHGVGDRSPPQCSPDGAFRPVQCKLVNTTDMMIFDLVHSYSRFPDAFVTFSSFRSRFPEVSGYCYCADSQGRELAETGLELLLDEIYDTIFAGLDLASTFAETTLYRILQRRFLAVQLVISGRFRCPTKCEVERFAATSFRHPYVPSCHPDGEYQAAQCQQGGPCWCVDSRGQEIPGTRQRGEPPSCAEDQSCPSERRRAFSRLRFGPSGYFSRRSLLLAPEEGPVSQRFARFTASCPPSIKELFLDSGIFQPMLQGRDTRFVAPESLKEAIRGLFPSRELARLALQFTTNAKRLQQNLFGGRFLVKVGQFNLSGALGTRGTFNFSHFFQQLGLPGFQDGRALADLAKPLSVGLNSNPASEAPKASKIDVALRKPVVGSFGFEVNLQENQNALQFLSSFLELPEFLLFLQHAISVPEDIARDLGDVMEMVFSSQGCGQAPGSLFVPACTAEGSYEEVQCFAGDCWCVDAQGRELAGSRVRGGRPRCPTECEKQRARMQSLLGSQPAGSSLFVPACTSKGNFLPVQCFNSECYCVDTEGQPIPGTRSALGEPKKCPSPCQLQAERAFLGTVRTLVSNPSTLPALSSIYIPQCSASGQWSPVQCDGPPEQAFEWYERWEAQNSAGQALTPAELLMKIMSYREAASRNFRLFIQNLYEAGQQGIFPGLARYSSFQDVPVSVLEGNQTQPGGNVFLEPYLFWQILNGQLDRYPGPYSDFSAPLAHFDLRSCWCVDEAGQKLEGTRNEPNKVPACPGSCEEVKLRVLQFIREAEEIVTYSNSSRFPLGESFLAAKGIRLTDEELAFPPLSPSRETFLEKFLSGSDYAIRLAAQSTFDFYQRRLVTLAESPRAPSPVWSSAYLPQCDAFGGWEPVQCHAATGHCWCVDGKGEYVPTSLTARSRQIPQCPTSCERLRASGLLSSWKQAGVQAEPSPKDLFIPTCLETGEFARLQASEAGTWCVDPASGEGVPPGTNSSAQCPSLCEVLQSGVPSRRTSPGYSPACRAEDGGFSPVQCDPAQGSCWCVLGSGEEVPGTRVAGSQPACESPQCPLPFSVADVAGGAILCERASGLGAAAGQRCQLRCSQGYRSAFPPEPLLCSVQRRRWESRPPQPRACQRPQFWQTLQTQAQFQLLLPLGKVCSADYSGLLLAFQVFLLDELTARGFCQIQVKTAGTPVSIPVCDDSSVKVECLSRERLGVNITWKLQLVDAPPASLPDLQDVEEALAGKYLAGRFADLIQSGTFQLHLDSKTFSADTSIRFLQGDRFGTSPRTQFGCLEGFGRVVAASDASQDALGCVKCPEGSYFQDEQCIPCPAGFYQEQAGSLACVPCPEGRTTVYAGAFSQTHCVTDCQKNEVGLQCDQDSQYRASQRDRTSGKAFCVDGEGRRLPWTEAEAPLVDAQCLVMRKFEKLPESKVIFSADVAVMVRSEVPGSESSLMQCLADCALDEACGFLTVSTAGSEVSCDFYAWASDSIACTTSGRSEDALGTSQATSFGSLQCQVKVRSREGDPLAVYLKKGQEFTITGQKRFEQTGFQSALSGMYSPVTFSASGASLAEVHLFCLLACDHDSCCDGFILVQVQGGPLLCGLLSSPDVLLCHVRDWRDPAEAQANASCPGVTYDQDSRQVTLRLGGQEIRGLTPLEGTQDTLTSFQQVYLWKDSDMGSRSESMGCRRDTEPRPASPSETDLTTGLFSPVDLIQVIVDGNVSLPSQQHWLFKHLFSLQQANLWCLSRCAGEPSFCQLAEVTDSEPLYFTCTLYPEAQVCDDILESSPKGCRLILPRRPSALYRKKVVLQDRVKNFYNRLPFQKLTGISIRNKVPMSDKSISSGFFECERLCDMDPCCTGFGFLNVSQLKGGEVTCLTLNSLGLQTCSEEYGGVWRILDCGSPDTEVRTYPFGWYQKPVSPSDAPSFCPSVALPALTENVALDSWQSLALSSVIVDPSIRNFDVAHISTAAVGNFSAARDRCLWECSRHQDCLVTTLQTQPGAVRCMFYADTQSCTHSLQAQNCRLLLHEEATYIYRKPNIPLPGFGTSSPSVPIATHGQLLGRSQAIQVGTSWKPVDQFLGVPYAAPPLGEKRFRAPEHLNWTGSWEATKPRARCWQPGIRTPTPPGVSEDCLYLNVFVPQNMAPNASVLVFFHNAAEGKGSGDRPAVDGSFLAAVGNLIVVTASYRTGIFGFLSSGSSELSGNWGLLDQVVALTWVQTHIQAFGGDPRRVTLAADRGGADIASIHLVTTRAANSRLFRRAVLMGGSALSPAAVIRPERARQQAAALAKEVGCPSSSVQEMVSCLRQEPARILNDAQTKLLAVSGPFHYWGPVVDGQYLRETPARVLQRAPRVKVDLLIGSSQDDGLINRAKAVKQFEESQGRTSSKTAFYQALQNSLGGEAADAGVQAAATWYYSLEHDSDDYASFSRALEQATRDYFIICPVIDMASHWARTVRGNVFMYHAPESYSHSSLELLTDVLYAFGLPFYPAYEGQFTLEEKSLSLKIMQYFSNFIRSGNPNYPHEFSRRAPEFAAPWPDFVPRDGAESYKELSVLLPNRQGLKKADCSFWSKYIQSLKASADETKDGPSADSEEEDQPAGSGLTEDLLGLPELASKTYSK

Binder	Kd [1]	Kd [2]	Kd [3]	binding result (thyroglobulin)
SPNQHTPPWMLK (also: biotinylated, position not given here) [Peptide mimetic of GXM P1]	2330 µM	541 µM	1070 µM	
Mouse-human chimeric antibody 18B7 (IgG1) (antibody, V domains shown, as the VH of m1 (identical V regions); human IgG1 (γ1) heavy chain constant region; as the VL of m1 (identical V regions); light chain constant region; IgG1; also called chAb 18B7; ch18B7; source: generated by cloning and transfection as described [36], purified by protein L agarose beads) VH: DVKLVESGGGLLKLGGSLKLSCVASGFSFSSYFMSWVRQTPEKRLELVAMINNNGDKTYYPDTVRGRFTISRDNAKNTLYLQMSSLKSEDTAMYYCARRDGTFGNHFDYWGQGTTLTVSS VL: DVVMTQAPLALPVSLGDQASISCRSSQSLAHSNGNTYLHWYLQKPGQSPKLLIYKVSNRFSGVPDRFSGSGSGTDFTLKISRVEAEDLGVYFCSQSTHVPWTFGGGTKLEIK				binds
GXM-binding murine monoclonal antibody 18B7 (antibody, V domains shown, VH of mAb 18B7; murine IgG1 heavy chain constant region; VL of mAb 18B7; murine light chain constant region; Murine IgG1; also called mAb 18B7; m18B7) VH: DVKLVESGGGLLKLGGSLKLSCVASGFSFSSYFMSWVRQTPEKRLELVAMINNNGDKTYYPDTVRGRFTISRDNAKNTLYLQMSSLKSEDTAMYYCARRDGTFGNHFDYWGQGTTLTVSS VL: DVVMTQAPLALPVSLGDQASISCRSSQSLAHSNGNTYLHWYLQKPGQSPKLLIYKVSNRFSGVPDRFSGSGSGTDFTLKISRVEAEDLGVYFCSQSTHVPWTFGGGTKLEIK				binds
deglycosylated form of mAb 18B7 (antibody, V domains shown, as the VH of m1; murine IgG1 heavy chain constant region, as in m1; as the VL of m1; as the light chain constant region of m1; Same chains as m1 without the N-glycan; PNGase F is known to turn the glycosylated Asn into Asp; also called 18B7dg; mAb 18B7dg; source: mAb 18B7 from hybridoma culture supernatants (protein G), incubated with PNGaseF at 37°C for 24 h, dialyzed against PBS) VH: DVKLVESGGGLLKLGGSLKLSCVASGFSFSSYFMSWVRQTPEKRLELVAMINNNGDKTYYPDTVRGRFTISRDNAKNTLYLQMSSLKSEDTAMYYCARRDGTFGNHFDYWGQGTTLTVSS VL: DVVMTQAPLALPVSLGDQASISCRSSQSLAHSNGNTYLHWYLQKPGQSPKLLIYKVSNRFSGVPDRFSGSGSGTDFTLKISRVEAEDLGVYFCSQSTHVPWTFGGGTKLEIK				binds

From PMC2110899, “Exchanging Murine and Human Immunoglobulin Constant Chains Affects the Kinetics and Thermodynamics of Antigen Binding and Chimeric Antibody Autoreactivity” (PLoS ONE, 2007)
